Experimental data taken from article PMC4339890 (Nature Communications, 2015).

Biological target: the molecule itself
Experiment: not stated; PAXX 1-145 in solution (Supplementary Fig. 2)

B1: PAXX N-terminal fragment (1–145) (domain or fragment, human, UniProt Q9BUH6 1-145, looked up)
chain: MDPLSPPLCTLPPGPEPPRFVCYCEGEESGEGDRGGFNLYVTDAAELWSTCFTPDSLAALKARFGLSAAEDITPRFRAACEQQAVALTLQEDRASLTLSGGPSALAFDLSKVPGPEAAPRLRALTLGLAKRVWSLERRLAAAEET
notes: A SeMet-labelled double mutant L57M/L105M of the same limits was used for phasing only; source: E. coli (pETDuet-1), purified (nickel beads, HiTrap Q, Superdex 200 gel filtration)
stoichiometry N: 2
